# Measured values published in US20080317723A1, “LYMPHATIC ENDOTHELIAL CELLS MATERIALS AND METHODS” (VEGENICS LIMITED, priority 2001, published 2008).
# How the values were obtained:
# [1] = test system: VEGFR-3 expressing lymphatic endothelial cells; assay: Culture and proliferation (PCNA) of isolated VEGFR-3 positive lymphatic endothelial cells; format: cell-based, human; conditions: complete medium with 5% serum supplemented with VEGF 10 ng/ml or VEGF-C 100 ng/ml
# Experimental: In order to compare the effects of the VEGFs on the survival of lymphatic versus blood vascular endothelial cells, specific antibodies and magnetic microbeads were used to isolate and to culture the VEGFR-3 positive and negative cells. Briefly, in this protocol, three separate sets of VEGFR-3 expressing lymphatic endothelial cells were cultured: a first set was cultured in complete medium containing 5% serum, the second set was cultured in complete medium containing 5% serum and supplemented with VEGF (10 ng/ml,) and the third set was cultured in complete medium containing 5% serum supplemented with VEGF-C (100 ng/ml). The VEGFR-3 positive cells were grown for five days after sorting in serum or supplemented with VEGFC and then stained for podoplanin and proliferating cell nuclear antigen (PCNA). The nuclei were stained with the Hoechst fluorochrome. If supplemented with VEGF-C or VEGF, the cells were stained for PCNA. Immunofluorescence double-staining of non-sorted cells or VEGFR-3 negative and VEGFR-3 positive cell populations with antibodies against podoplanin or VEGFR-3 also was performed.
# VEGFR-1/EpoR = target: T1, VEGFR-1/EpoR (Homo sapiens, UniProt P17948); assay: Ba/F3 bioassay, viability (MTT) of VEGFR-1/EpoR cells; format: cell-based; conditions: FIG. 1A
# T1 construct: a chimeric receptor containing the extracellular domain of human VEGFR-1, VEGFR-2 or VEGFR-3 fused with the transmembrane and cytoplasmic domains; expressed in transfected cells
# Experimental: FIG. 1A-FIG. 1C. Analysis of the receptor-specificities of different VEGFs using the Ba/F3 bioassay. Measurement of the viability of Ba/F3 cells expressing the chimeric receptors VEGFR-1/EpoR (FIG. 1A), VEGFR-2/EpoR (FIG. 1B) or VEGFR-3/EpoR (FIG. 1C) in the presence of different VEGFs at indicated concentrations. Cell viability was determined using the MTT assay. Data represent the mean values from triplicate assays (mean±s.d.). FIG. 1D-FIG. 1G. Biosensor analysis of the interaction of VEGF-C (FIG. 1D, FIG. 1E) and VEGF-C156S (FIG. 1F, FIG. 1G) with VEGFR-3 (FIG. 1D, FIG. 1F) and VEGFR-2 (FIG. 1E, FIG. 1G). Chimeric receptor proteins were immobilized onto a carboxymethylated dextran surface. Growth factors were injected over the surface at a flow rate of 20 μl/min at the indicated concentrations. The sensorgrams shown have been subtracted with the corresponding signal obtained when the same sample was passed over a blank control channel.
# Bioassay for VEGFR stimulation. […]
# VEGF is an endothelial cell mitogen which has been also shown to protect endothelial cells from starvation and TNF-a induced apoptosis via activation of VEGFR-2 (Gerber et al, J. Biol. Chem., 273:30336-30343, 1998; Spyridopoulos et al., J. Mol. Cell. Cardiol., 29:1321-1330, 1997). […] The specificities of the growth factors used were determined using a cell survival bioassay. […]
# hVEGFR-2 = target: T2, hVEGFR-2 (Homo sapiens, UniProt P35968); assay: Biosensor (BIAcore) analysis of ligand binding to immobilized VEGFR-2; conditions: hVEGFR-2 bivalent immunoglobulin fusion protein immobilized; global fitting, 1:1 Langmuirian model with mass transfer
# T2 construct: Receptor domains were coupled to the carboxymethylated dextran layer of a CM5 sensor chip
# Experimental: Biosensor Analysis. All preparations were analysed for homogeneity and buffer exchanged by micropreparative size exclusion HPLC using a Superose 12 (3.2/30) column installed in a SMART system (Amersham Pharmacia Biotech, Uppsala, Sweden) immediately prior to use (Nice and Catimel, Bioessays, 21:339-352, 1999). The concentrations of VEGF-C and VEGF-D were determined by absorbance at 280 nm using E280 1% 1 cm of 0-65. Receptor domains were coupled to the carboxymethylated dextran layer of a CM5 sensor chip using standard amine coupling chemistry (Nice and Catimel, Bioessays, 21:339-352, 1999) for analysis of ligad binding using a BIAcore 2000 optical biosensor (BIAcore, Uppsala, Sweden). The levels immobilized were 3,000 RU and 7,000 RU for VEGFR-2 and VEGFR-3, respectively. Following immobilization, residual activated ester groups were blocked by treatment with 1 M ethanolamine hydrochloride pH 8.5 followed by washing with 10 mM diethylamine to remove non-covalently bound material. 10 mM diethylamine or 10 mM HCl was used to regenerate the sensor surface between analyses for VEGF-D or VEGF-C binding, respectively. Samples were diluted in running buffer (10 mM HEPES pH 7.4, 150 mM NaCl, 3.4 mM EDTA, 0.005% Tween 20). The apparent binding affinities of VEGF-C and VEGF-C156S to receptor domains were determined by analysis of the initial dissociation phase to obtain the kd, which was then used to constrain a global analysis of the association region of the curves, assuming a 1:1 Langmuirian model. Data were analysed using BLAevaluation 3.0 (BIAcore, Uppsala, Sweden) as described previously (Catimel et al., J. Chromatogr., 776:15-30, 1997).
# Biosensor analysis was used to further investigate the interactions of VEGF-C and VEGF-C156S with VEGFR-2 and VEGFR-3. Analysis of the biosensor binding curves confirmed that VEGF-C156S binds only to the extracellular domain of VEGFR-3, whereas wild type VEGF-C bound to both VEGFR-2 and VEGFR-3 receptors (FIG. 1D-FIG. 1G). […] However, in both assays the affinity of VEGF-C was higher towards VEGFR-3 than towards VEGFR-2.
# T2 sequence (P35968 20-764 limits assumed): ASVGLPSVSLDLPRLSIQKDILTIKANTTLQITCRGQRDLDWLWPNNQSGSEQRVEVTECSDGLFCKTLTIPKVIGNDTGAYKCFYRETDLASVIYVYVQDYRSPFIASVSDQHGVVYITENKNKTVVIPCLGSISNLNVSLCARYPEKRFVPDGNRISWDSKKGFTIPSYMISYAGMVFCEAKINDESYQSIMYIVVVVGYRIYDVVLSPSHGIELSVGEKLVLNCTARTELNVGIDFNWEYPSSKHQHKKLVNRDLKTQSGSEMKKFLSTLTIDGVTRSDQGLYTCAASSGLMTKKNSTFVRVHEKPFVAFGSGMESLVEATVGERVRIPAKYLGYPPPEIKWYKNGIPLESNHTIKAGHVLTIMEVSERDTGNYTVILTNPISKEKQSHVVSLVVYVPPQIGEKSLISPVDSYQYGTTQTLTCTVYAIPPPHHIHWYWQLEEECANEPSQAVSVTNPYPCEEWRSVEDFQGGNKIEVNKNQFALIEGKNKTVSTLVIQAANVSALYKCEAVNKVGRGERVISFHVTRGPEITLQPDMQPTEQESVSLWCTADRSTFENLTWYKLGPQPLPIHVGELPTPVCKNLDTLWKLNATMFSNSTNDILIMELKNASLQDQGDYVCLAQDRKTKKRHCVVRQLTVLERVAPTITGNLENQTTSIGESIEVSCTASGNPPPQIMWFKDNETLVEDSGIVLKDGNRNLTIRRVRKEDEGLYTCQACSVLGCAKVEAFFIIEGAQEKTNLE
# T1 sequence (P17948 27-758 limits assumed): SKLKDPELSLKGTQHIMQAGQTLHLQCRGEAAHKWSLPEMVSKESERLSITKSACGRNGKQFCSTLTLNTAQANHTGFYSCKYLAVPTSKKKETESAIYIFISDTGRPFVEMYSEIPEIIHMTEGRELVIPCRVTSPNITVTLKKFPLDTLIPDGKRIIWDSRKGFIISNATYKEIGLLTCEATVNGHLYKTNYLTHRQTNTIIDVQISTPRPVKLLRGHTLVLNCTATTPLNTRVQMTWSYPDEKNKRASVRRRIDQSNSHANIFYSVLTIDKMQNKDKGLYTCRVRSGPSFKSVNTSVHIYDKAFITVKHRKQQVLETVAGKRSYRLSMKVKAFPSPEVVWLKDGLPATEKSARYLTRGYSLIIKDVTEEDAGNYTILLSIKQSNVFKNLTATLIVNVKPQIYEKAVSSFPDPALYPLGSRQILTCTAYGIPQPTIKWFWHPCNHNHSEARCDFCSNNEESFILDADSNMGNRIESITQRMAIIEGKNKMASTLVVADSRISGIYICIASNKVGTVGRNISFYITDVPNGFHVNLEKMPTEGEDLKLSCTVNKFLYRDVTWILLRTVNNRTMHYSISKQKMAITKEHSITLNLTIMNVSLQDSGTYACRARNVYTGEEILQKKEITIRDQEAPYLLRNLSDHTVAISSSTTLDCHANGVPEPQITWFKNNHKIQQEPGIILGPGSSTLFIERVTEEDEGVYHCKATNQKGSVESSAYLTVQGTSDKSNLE
Molecule,proliferation of isolated podoplanin positive cells [1],survival of VEGFR-1/EpoR cells (VEGFR-1/EpoR),KD (hVEGFR-2),Ka (hVEGFR-2),Kd (hVEGFR-2)
VEGF,most of the podoplanin positive cells proliferated readily,able to induce the survival of VEGFR-1/EpoR cells,,,
"VEGF-C156S: VEGFR-3 specific mutant form of VEGF-C, cysteine 156 changed into serine; recombinant human (Thr103 to Ile225) (protein, UniProt P49767 103-225, looked up, variant C156S) TEETIKFAAAHYNTEILKSIDNEWRKTQCMPREVCIDVGKEFGVATNTFFKPPSVSVYRCGGCCNSEGLQCMNTSTSYLSKTLFEITVPLSQGPKPVTISFANHTSCRCMSKLDVYRQVHSII",,,no binding,no binding,no binding
